Source: the domain aggregation screens of Martell et al. (2025)

Assay: soluble fraction after stress (log2 fold change); higher = more stays soluble; pooled small domains, quantitative proteomics
Conditions: stress: 75 degC
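Further: 20 min heating vs room temperature control held 20 min.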

| Sequence | soluble fraction (log2) |
| --- | --- |
| HMIGPYAAAKLMTNKDFVKWLSGGVEKSVFNPNSFGQHIRRLVQISEVNPDIRDEINAVVQGLTQ | -0.445 |
| HMIGRIKGQLIEKKSDSVVIDVHGIGYVVYVTEKTARSLTLGDQSRDISLYSELLVKEDLLQLVGFI | -0.075 |
| HMIGRRLKVARASAGLSLRELAARMDGVVTPQAIGKYERNEDMPGSRALMALASALGVSEGYLLSD | -1.38 |
| HMIHDSAESVVFPFGKYKGYTLAHVIREHPHYTYWIRDNADFSPLWREAVSLALQNRDIGHLNLPHVK | -0.222 |
| HMIHMNMGQKINQLRLQKGFTLEELGNLVGVGKSTVRKWENGMIANMKRDKILLVAEALDTSPAYLMGWD | -2.12 |
| HMIIENIVVEIKGEVYNPGLYILEQGSRINDLIELSGGFTKDANGTDLNLAKVLSDGEVIIVSKKG | -1.29 |
| HMIIIMKPNASEEAVRKVTHIIESKGLQVHLSKGSQVTIVGVVGDKTRLQGSNIEISEGVDKVVAVT | -1.22 |
| HMIILDASASRAIGNGTIEETKWDFGNGESSTNRGGPIVERQIYANQAAYILKLSMKTNDGQLFTKEIQLL | 0.162 |
| HMIINKFERRKEIQIQFNNQERIKFKDFFLNLSKENIIVSFLILLELVRESLIDFSGTNENDIEFFIK | -2.38 |
| HMIITTPYKVTASAINIRSGRGTSYSIIGTVSKGQTVDVYNNSLSKGWVKVKFSGSVGYAYAKYLEK | -1.62 |
| HMIIVMSANANAREISEVIARIRAMGYDVHLSHGKERTIIGVIGRGTPIDREQLSLMSGVQQVMPV | -2.44 |
| HMIKIEDILNVESVELSDSEYKKFLNGILINVKNLENGWAKVYSGNEFKGFGIVDKNLLKRKIVID | -1.49 |
| HMIKIEDYTNKDYNKVEASLEVKGLVVNIEYKAVDDKAKYKGKEDLIIDQSVKKDATLVKGDTIILYLPK | -1.21 |
| HMIKISDYLSEEDLNFIKEMEKIYPYFDFDSEGNLILTKSIDELKDKYGFDEAFVSRLDTVLNSR | 0.108 |
| HMIKITLGWVISVRRHDLGYTQHKMARAVGISDLTVSRIESDDGITPDNNTLRKIAEYLKIDYNSLLTLK | -1.37 |
| HMIKLIKKDTNISELKMSKMPWDVMLYGKPYQVVSIKGYVHTIGGRRGENDLWMYPRDESPTYENLIEFQ | -2.19 |
| HMIKNKDRIQYTLAHRKAFRKIEKELLGYNTFRSLFHDLDKVFLYPFFDYKKVHNFHRNHAHH | 0.132 |
| HMIKRETNDNPVDPASLSLGDRVKILTLNQNGEIISLPDEKGLLQVQVGIMKIGVNVSDIMLI | -0.9 |
| HMIKRITDEQHPVDVDRLLVVTFTNAAASEMRERIGDAIEAALEKDPYNQHLQRQLTLVHNAQITTIDS | 0.171 |
| HMIKSEERIQNIKEYILEFQFTYHRTPTMAQIAEAVGTVKSNVYKYLSEMEERGILTRNKREIEINDTIQ | -0.807 |
| HMIKSMTGYGSAKGTVEGIEVSVELKSVNNKFLDTSIRLPRSFLFAEETIKQAVSSHISRGKVDVFVSVDS | 0.587 |
| HMIKYTIEELGELTGFTRRTIRYYVQEGLIDPPAGRGRGGFYYDSHVQQLLRIKSFQEKGIGITAMVSLM | -2.32 |
| HMILEEIIGKNIARYREAAGLTQATLAEKIGISTAFVSRVERGQKKMKVETLYATAKVLNVSVDALLS | -2.61 |
| HMILKNVPSNLVNQRLDKVATVLFQTYSRTQIKKWILEGRLLVNGEISNPKDLVNENDEIEINPI | -2.95 |
| HMILKQTHIVQELTGPIRLQEYGVGIFQQISTKSALKKALKKNQITVDGVVGSTATFIKGGEIIIYHVTE | -2.67 |
| HMILNDRSELLDVVKRVIAANPASVADYRKGKKKVLGFLVGQAMKETKGQADPRILNELFLQELGEN | 0.108 |

| Sequence | soluble fraction (log2) |
| --- | --- |
| HMILNNAKINTELNSLAEFTQRSLDSNTSEIGFYDYKKISYIASFATMKTTNWNVIIRAPINEFMGTVN | 0.126 |
| HMILQTLSERVTETLRDWILHGHFKPGDKIEEVPIAERMGVSRTPVRAAFATLTNEGLIDHQPNRGYQVRV | -0.496 |
| HMILSTNFFRHIVPKEYQTSYGTMKKWLTDHNVIGTNSIPQGIGYRIPTQGLSSTFSFKVVDVLPDR | -0.986 |
| HMIMDQTILRKQRELTDRLNRYRNEYYNHNKPSVSDEVYDRLFDELQSLEKETGVQMANSPTTTVG | -0.0853 |
| HMIMGTITKRTNPSGAIVYRAQIRIKKAGYPDFSESRTFSKKAMAVEWLKLREAELEMHPELLFR | -2.35 |
| HMIMHLNQIIRNKRLAAGLTQEALAQKVGVTAPAVSKWEKGISYPDITLLPILARNLNTDVNTLLDFSA | -1.29 |
| HMIMNLNVLANNVRRLRTAQRLSQSALASKAGLSVPAIKNLENARNEPRVNTVQVIAHALEVRLQDLFAPT | -1.81 |
| HMIMTEKEKKLLNRYIMHDTIHKLYHEQNKSMRWIADNLGINFRTVQKYLDMDSGEFQKYSESISNR | -0.97 |
| HMIMTIYEYIARNNPTGAKRVIESFGYVVTQPKKMGDNLRMLVAQEGEPALKAVVDLHPDKDLILEV | -2.69 |
| HMINAQETEIYRFLIEKANRLYSMVLGLKREELMTATRQFEEEVKHSSIHHLPKIYQAFSSYLELLERG | -1.2 |
| HMINDKLQHLFSLFPAMDKELKRKGITRQILWVEYKKQYPLGFGRSQFNSYFAAWKAQVSPS | -1.98 |
| HMINFLSKREIEVLRLVADGLSNRDVGQYLFISESTVKRHLSTIYEKLAVKSRTQAIDHARRADL | -3.6 |
| HMINGTITFYDDTTLKGELSSLDTKYLFIIPNGLVMPEKIAVSDIEYFNLDNGITLIQDGISKQTY | -1.09 |
| HMINLGDLEVGHTYHTRMPILQNDLKYSHKSPIQIVAEHSIVYGVRVYIGFLNEHRVLVTADDV | 0.0105 |
| HMINLRTALNNAGVMQKELSDILYMTPQDVNRRFSGVTKWKPLEKRAIMQFLEDRGFEYTEEQLF | -0.564 |
| HMINLVPFELKFITAQVLDDIIKKIGINADTIILDINPKKIWVYAGEQELSDIQNIVKNVDVEDNI | -1.71 |
| HMINVLTPKQIEATTIAVKYGYYENPRTVSMRELSEISGIARSTLQEHLSKAEAALMILAAKSQL | -0.365 |
| HMINVVDEVIKHLETNIISGFWAPGQKIDSEATLSKQLNVSRASIHTAIQQLIATGVLESFQGKGTFVRS | -0.305 |
| HMIPDGKWKEDPISDGQKNFINSLIEQAIDAGQDELGAEAKKYLASGEATKGNASAMIDKLKSAL | 0.39 |
| HMIPDMSLELAMSEQTSKGDLYGDLPNDKLALMFNAISKKVPHTDDHKRKMVAIQTILESRAS | -0.415 |
| HMIPEGKWMEDPISEGQIKFIETLIKQAIDSGQDALGAEAKQYLSSGEATKGNASSMIDKLKDAL | 0.433 |
| HMIPEILNGYTKWGDDEPFEDHAGPFYMKMMPSTGRHLSAFIPEQRHMNGGGFLHGGMLMSFADYALFVI | 0.244 |
| HMIPEKEISYMMPDGFMPKELKIIHITESGRKQIYSAAHKPLDLVNVKAPFVPNTKVQIYINDVPIEELKI | -1.01 |
| HMIPKDKQAWIALTYIYGVGRTTSMEILKKAQVGEEIRMKDLTEEEVTRIRNIIDKEYEVEGDLRRN | -0.252 |
| HMIPNEKEAARWDALTAEHTAKLNALEGDALDKVGSHEDVSIKRAGVGDAAFREKILSRTHPDDLERALST | -0.0132 |
| HMIQHFARKRRQLELAVQRLSGRMAETNGQVTADMQRLIQQVKALVAELSHVFSRAYLRRVLGGVALVIGS | -0.597 |

| Sequence | soluble fraction (log2) |
| --- | --- |
| HMIQLTDAEFNELVTYIKKNYGINLIKKRLLIEARMYSVLAKHGFTSFTEYINLIKRDPAELNTMLNKLTT | -3.26 |
| HMIQMRVKVPKNIAGGSLMGAHHFVKSALARTNPGGSTSNYKIQATDGTPLTLGDLTARQYDEVLIISG | -0.668 |
| HMIQTKKVTFTVEPTVNFEKINISGIEFKINSGSSITAIYEKNSHNFDEVLDFLKQKGVKILDIVTED | -0.251 |
| HMIRILIVDDSAFMRKLLSDVFEEDKNFVVVDTARNGQDAVEKVKRLKPDLVTMDVEMPVMDGLTAVEIIM | -0.453 |
| HMIRSNLAEQAYAQLKALIHDFQLLPGDRFSENEMGTRLGVSRTPVREALFRLRNEGFLEVESKAGWYVK | -3.04 |
| HMISAADLQTYLKGMDYPAGREDLVAHAQRNNAPESVITILQGFSDRTYRSAAEVSEEFGRE | 0.495 |
| HMISADSSKVDTLVQVYSNMKPIQAAQVFEKMDEDLVIEILSRMKKKNAADILNLIKTEKAQVFAEKYA | -0.109 |
| HMISAEPVGEDLFKVAFPFLGGSTVFEKTIEQFIEEHPSKRIDHIYTVPNPLRLKKADALIFYIITEEK | -1.07 |
| HMISASDLQTYLKGMDYPARKEDLIVHAQRNNAPESVIAAIRQFSDRTYQSAADVSEEFGKI | 0.602 |
| HMISDEELLVSTKKEIMSLATVLTKTDKKDDAIAIMKEYDPAANPNRIKDVNKAKELLERLQKLG | -0.225 |
| HMISDISEIEAIIVEVLKVFPNQLQEYLDGKEKILSFFVGQVMQRTKGRANPSLVNEILKEKIKN | -1.22 |
| HMISEAEGTILQLLKEADGTLPFTYKSDADEIKKVFGMSKKNFKRTLTELIEAKKIQLLDDAIVL | -0.632 |
| HMISEKEIKIIEDILARWNGKLTWDDFTSKVAKKLNLPSLSKFTLMGYPEIKQAFLTRKQTLK | -0.53 |
| HMISENFVEAKILLTEDNRPKSLEILKDIIRQHDKVYSPLSLFLILDEDLEENKEIILEYFDLVLS | -0.327 |
| HMISESLLDEIPGLGETRRNSLLREFGSVAMIRKASAEEIASRVRGIGAEFAAAIHDFLQTH | -0.446 |
| HMISFHEYLTQLLDEKGLTKAQVITDSNIQKNYGYQIFDGSKTPSRDKVIAIALAMQLTLDEANRLLHLSN | -1.75 |
| HMISFTDLEHIEKMIENVLYTKTPLNLPPTDAKIRKIEHQIARRYGLNSESFGDEPRRFVVVYPNEERE | -0.907 |
| HMISKAQLFSEEELTELYRATGYQLENDPEIHREQFEALQAVRAKIEYAVPDVQEKLEQEQNLGQQ | 0.512 |
| HMISKRFQVDEENSNNRVDIFLANNLDSISRGIVQQLILDGKVLVNGETVKRNHLLKTNDEVDISFEI | 0.349 |
| HMISRDPYDAGAIKRHFSASGLFSSKELAHYLGKSVSTAKNVLSDLQQQGIVEMVGQGPATKYRFI | 0.772 |
| HMISSRDAAVIGLVENIQRAQLNAIDESSGFKHLMETYNLESKEIALLVGKSRSYVSNSLRLSK | 0.124 |
| HMISTVFYVDVKGEVHHPGVYQMKAENRVKDLIEAAGGFTPLADDQKLNLAQLLEDQMVIVVPKKGEEV | 0.243 |
| HMISVTNRTGTGLNDVKVEVFPVGRQMVFSATVFRVESEATNRFSLGELRGSDGTPFNQRVHRPESI | -0.184 |
| HMITAEQENILFEKASDDISNNIINKGIWTKAYSQAGGDESKQKAIYIDLLVNYYKMLIKAGEEFEDI | -2.42 |
| HMITALLPGTVLIREFDGRDYHVTVATDGRFEMDGHKYPSLSAVAKHITGTQWSGPAFFGLN | -1.06 |
